Two molecules from PMC4807364, “Interaction between Simian Virus 40 Major Capsid Protein VP1 and Cell Surface Ganglioside GM1 Triggers Vacuole Formation” (mBio, 2016) can be followed below.

What is called stoichiometry N is a count of units in the complex or per binding partner.

Data set [1] concerns the target C-terminal deletion VP1 mutant (ΔC), truncated after amino acid position 305 (pentamers) (simian virus 40) (UniProt P03087). Briefly: negative-stain electron microscopy; purified pentamers diluted in PBS pH 7.2 at 20 µg/ml, stained with 1% uranyl acetate, Tecnai T12; step: VP1 chains to pentamer.
Data set [2] concerns the molecule itself. The data set is described as above.

In data set [1], “C-terminal deletion VP1 mutant (ΔC), truncated after amino acid position 305 (pentamers) (from UniProt P03087 1-305) (domain or fragment)” gave a stoichiometry N of 5.

B1: full-length wild-type SV40 VP1 (pentamers) (natural protein)
chain: MAPTKRKGSCPGAAPKKPKEPVQVPKLVIKGGIEVLGVKTGVDSFTEVECFLNPQMGNPDEHQKGLSKSLAAEKQFTDDSPDKEQLPCYSVARIPLPNINEDLTCGNILMWEAVTVKTEVIGVTAMLNLHSGTQKTHENGAGKPIQGSNFHFFAVGGEPLELQGVLANYRTKYPAQTVTPKNATVDSQQMNTDHKAVLDKDNAYPVECWVPDPSKNENTRYFGTYTGGENVPPVLHITNTATTVLLDEQGVGPLCKADSLYVSAVDICGLFTNTSGTQQWKGLPRYFKITLRKRSVKNPYPISFLLSDLINRRTQRVDGQPMIGMSSQVEEVRVYEDTEELPGDPDMIRYIDEFGQTTTRMQ
notes: major capsid protein VP1 of simian virus 40, full length, wild type, in the pGEX-4T2 plasmid; The virus stocks are strain 776, but no strain is stated for the bacterial construct; The preparations held pentamers and higher-order structures; no intact VLPs were seen; also called major capsid protein VP1; wild-type VP1 pentamers
Turning to B1, the “stoichiometry N” value in data set [2] was 5.
